# Results: patent US20250179550A1, “Methods to imbue polymeric materials with new structures and functions” (The Regents of the University of California, priority 2022, published 2025)
# B1: MicD-F: constitutively activated cyclodehydratase, leader peptide fused to N-terminus of MicD, SEQ ID NO: 7 (protein, listed as Microcystis aeruginosa)
# chain: MSHHHHHHDYDENLYFQGSRLTAGQLSSQLAELSEEALGDAGAGAGAGAGAKLMQSTPLLQIQPHFHVEVIEPKQVYLLGEQANYALTGQLYCQILPLLDGQHSREQIVEKLDGEVPSEYIDYVLDRLAEKGYLTEAAPELSSEVAAFWSELGIAPPVAAEALRQSVTLTPVGNISEVTVAALTTALRDIGISVQTPTEAGSPTALNVVLTDDYLQPELAKINKQALESQQTWLLVKPVGSVLWLGPVFVPGKTGCWDCLAHRLRGNREVEASVLQQKQAQQQRNGQSGSVIGCLPTARATLPSTLQTGLQFAATEIAKWIVKHHVKATAPGTVFFPTLDGKIITFNHTVIDLKSHVLVRRSQCPSCGDRQILHRQGFEPVKLVSRRKHFTHDGGHRAFTPEQTVQKYQHLVSPITGVVTELVRLTDPANPLVHTYKAGHAFGSATTLRGLRNTLKYKSSGKGKTDIQSRASGLCEAIERYSGIFQGDEPRKRATLAELGDLALHPESLLYFSNTQYANREELNAQGSAAAYRWIPNRFDVSQAIDWTPVWSLTEQKHKYVPTAFCYYGYPLPEEQRFCKADSNGNAAGNTLEEAILQGFLELVERDSIAMWWYNRIRRPAVDLSTFDEPYFVDLQQFYQQQNRELWVLDVTADLGIPAFAGFSRRTVGTSERISIGFGAHLDPTIAILRALTEVSQVGLELDKIPDDKLDGESKDWMLNVTVENHPWLAPDPSVPMKTASDYPKRWSDDIHTDVMNCVKTAQTAGLEVMVLDQTRPDIGLNVVKVIIPGMRTFWTRFGQGRLYDIPVKLGWLDAPLAEEELNQTNIPF
# B2: mCherry174+ (protein, listed as Discosoma sp.)
# chain: MDYKDDDDKMVSKGEEDNMAIIKEFMRFKVHMEGSVNGHEFEIEGEGEGRPYEGTQTAKLKVTKGGPLPFAWDILSPQFMYGSKAYVKHPADIPDYLKLSFPEGFKWERVMNFEDGGVVTVTQDSSLQDGEFIYKVKLRGTNFPSDGPVMQKKTMGWEASSERMYPEDGALKGEIKQRLKLKDMCAYDGGGHYDAEVKTTYKAKKPVQLPGAYNVNIKLDITSHNEDYTIVEQYERAEGRHSTGGMDELYKHHHHHH
# B3: mCherry192+ (protein, listed as Discosoma sp.)
# chain: MDYKDDDDKMVSKGEEDNMAIIKEFMRFKVHMEGSVNGHEFEIEGEGEGRPYEGTQTAKLKVTKGGPLPFAWDILSPQFMYGSKAYVKHPADIPDYLKLSFPEGFKWERVMNFEDGGVVTVTQDSSLQDGEFIYKVKLRGTNFPSDGPVMQKKTMGWEASSERMYPEDGALKGEIKQRLKLKDGGHYDAEVKTTYKAKKPVMCAYDGQLPGAYNVNIKLDITSHNEDYTIVEQYERAEGRHSTGGMDELYKHHHHHH
# B4: RopC: Rop variant with loop sequence GGGGMCAYDG, SEQ ID NO: 3 (protein, listed as Escherichia coli)
# chain: MDYKDDDDKMTKQEKTALNMARFIRSQTLTLLEKLNELGGGGMCAYDGDEQADICESLHDHADELYRSCLARFGDDGENLHHHHHH
# B5: RopN: Rop variant with loop sequence MCAYDGGGGG, SEQ ID NO: 1 (protein, listed as Escherichia coli)
# chain: MDYKDDDDKMTKQEKTALNMARFIRSQTLTLLEKLNELMCAYDGGGGGDEQADICESLHDHADELYRSCLARFGDDGENLHHHHHH
# B6: RopM: Rop variant with loop sequence GGMCAYDGGG, SEQ ID NO: 2 (protein, listed as Escherichia coli)
# chain: MDYKDDDDKMTKQEKTALNMARFIRSQTLTLLEKLNELGGMCAYDGGGDEQADICESLHDHADELYRSCLARFGDDGENLHHHHHH
# Key:
# [1] = Temperature stability of MicD-F; type: physicochemical
# MicD-F = assay: Reaction of protein substrates (mCherry and Rop variants) with MicD-F, LC-MS deconvoluted mass; type: biochemical, Microcystis aeruginosa; conditions: for cyclodehydration of mCherry variants to thiazoline (loss of water) / cyclodehydration of Rop variants to thiazoline: 50 mol % MicD-F; for cyclodehydration of mCherry variants to thiazoline (loss of water): 24 hours
# Procedure: Reactions of proteins with MicD-F were performed in the manner described above with minor modifications. Namely, the substrate stock was a 1 mM solution of protein in 20 mM HEPES, 150 mM NaCl, 1 mM TCEP, pH 7.4.
# (§1) Unprocessed reaction mixture (1 μL) was used for LC-MS analysis which was performed on an Agilent 1290 Infinity II HPLC connected to an Agilent 6530B QTOF AJS-ESI. The mobile phase for LC-MS was water and acetonitrile with 0.1% (v/v) formic acid and a flow rate of 0.4 mL/min. Each sample was injected onto a Poroshell 300SB-C8 column (2.1×75 mm, 5-Micron, room temperature, Agilent) using a linear gradient from 5 to 55% acetonitrile over 8 minutes after an initial hold at 5% acetonitrile for 2 minutes (0.4 mL/min). The following parameters were used during acquisition: Fragmentor voltage 225 V, gas temperature 300° C., gas flow 10 L/min, sheath gas temperature 350° C., sheath gas flow 11 L/min, nebulizer pressure 35 psi, skimmer voltage 65 V, Vcap 5000 V, 1 spectra/s. Intact protein masses were obtained via deconvolution using the Maximum Entropy algorithm in Mass Hunter Bioconfirm (V10, Agilent).
# [2] = Analytical size-exclusion chromatography of Rop variants; type: physicochemical; conditions: 50 μM
# Procedure: To assess the homogeneity of isolated Rop variants, a solution of each protein was prepared (250 μg at 50 μM) in running buffer (10 mM phosphate, 100 mM NaCl, 150 µM TCEP, pH 7.0). A Superdex® 75 Increase 10/300 GL column (stored and operated at 4° C.) was washed with 2 column volumes (CV) of degassed and sterile filtered MilliQ water. The column was then equilibrated in running buffer for 2 CV. Each sample (500 μL) was applied to a 500 μL sample loop. The sample loop was washed with 2 mL of running buffer at 0.8 mL/min to load the sample onto the column. The sample was then eluted from the column by flowing running buffer at 0.8 mL/min for 1.30 CV. To assess column performance, a gel filtration standard (Bio-Rad Laboratories, Hercules, CA, catalog number 151-1901) containing 670 kDa, 158 kDa, 44 kDa, 17 kDa, and 1.35 kDa standards was used according to the manufacturer's instructions.
# MicD-F and ArtGox = assay: Reaction of protein substrates with MicD-F and ArtGox in tandem, LC-MS deconvoluted mass; type: biochemical, Microcystis aeruginosa; Arthrospira platensis; conditions: 50 mol % MicD-F, 80 mol % ArtGox, 24 hours, pH 9.0, 37° C.
# Procedure: Reactions of proteins with MicD-F and ArtGox were performed in the manner described above with minor modifications. The substrate stock was a 1 mM solution of protein in 20 mM HEPES, 150 mM NaCl, 1 mM TCEP, pH 7.4. Reactions were carried out at either 25° C. or 37° C. as indicated.
# as §1
# [3] = Circular dichroism of Rop variants (wavelength scans and temperature melts); type: physicochemical; conditions: CD at 222 nm; for TM (melting temperature): 20 μM, 10 mM phosphate, 100 mM NaCl, 150 μM TCEP, pH 7.0
# Procedure: RopN, RopM, and RopC were exchanged into CD buffer (10 mM phosphate, 100 mM NaCl, 150 μM TCEP, pH 7.0) using Amicon Ultra-0.5 mL centrifugal filters (MilliporeSigma, Burlington, MA) with a 3 kDa molecular weight cut-off according to the manufacturer's instructions and then diluted with the same buffer to a concentration of 20 μM. For CD analysis each Rop variant was transferred to a 1 mm quartz cuvette. Wavelength and temperature dependent CD spectra were collected with an AVIV Biomedical, Inc. (Lakewood, NJ) Circular Dichroism Spectrometer Model 410. For wavelength-dependent spectra, initial scans were performed from 200 to 300 nm at 25° C. in 2 nm increments with an averaging time of 5 seconds. For temperature melt experiments, the signal was monitored at 222 nm with an averaging time of 5 seconds. Temperature melts were performed from 5 to 90° C. in 1° C. increments with equilibration for 2 minutes before each measurement. Following the temperature melt the sample was returned to 25° C. and the wavelength-dependent CD spectra was measured once more to assess the reversibility of the melt. Raw data (mdeg) were converted to molar ellipticity ([Θ], in deg*cm^2*dmol^−1) by
# where M is the mean residual weight (116.00 g/mol for RopN, RopM, and RopC), L is the pathlength of the cuvette in centimeters, and C is the concentration of the sample in g/L.7 The melting temperature was determined by fitting the molar ellipticity as a function of temperature to a Boltzmann sigmoidal curve using GraphPad Prism (Version 7.04).
# CD analysis of RopC-U and RopC-Z was performed as described for RopN, RopM, and RopC with the following modifications. Temperature melts were performed from 5 to 90° C. in 2.5° C. increments. Before measuring the temperature melt for RopC-Z, the protein was refolded by performing an initial melt from 5 to 90° C. in 2.5° C. increments as described.
Molecule,highest temperature at which MicD-F remained stable [1] [°C],"cyclodehydration of mCherry variants to thiazoline (loss of water) (MicD-F; pH 9.0, 37° C.)","cyclodehydration of mCherry variants to thiazoline (loss of water) (MicD-F; pH 9.0, 42° C.)","cyclodehydration of Rop variants to thiazoline (MicD-F; pH 9.0, 37° C., 16 h)","conversion of RopC into RopC-U (MicD-F; up to 50 μM MicD-F, 16 h, 25° C.)",migration / homogeneity on SEC [2],conversion to the thiazole-modified protein (MicD-F and ArtGox),unfolding behaviour in temperature melt [3],TM (melting temperature) [3] [°C]
B1,42,–,–,–,–,–,–,–,–
B2,–,no evidence of cyclodehydration,no evidence of cyclodehydration,–,–,–,–,–,–
B3,–,no evidence of cyclodehydration,no evidence of cyclodehydration,–,–,–,–,–,–
B4,–,–,–,clean conversion,minimal,discrete dimers,complete conversion,melted cooperatively and reversibly,28
B5,–,–,–,unreactive,–,heterogeneous mixture,–,melted non-cooperatively,43
B6,–,–,–,reacted partially,–,discrete dimers,–,melted cooperatively and reversibly,32
